From doi:10.1101/2023.09.18.557803, “Structure of the portal complex from Staphylococcus aureus pathogenicity island 1 transducing particles in situ and in solution” (bioRxiv, 2023)

Key:
[1] = molecular target: bacteriophage 80α portal protein (gp42), expressed in E. coli with a C-terminal hexahistidine tag (Staphylococcus aureus bacteriophage 80α); assay: cryo-EM structure; portals expressed in E. coli, in solution (25 mM HEPES pH 7.4, 0.1 M NaCl); 2D classification and C13 reconstruction in RELION-3, 2.4 Å
[2] = molecular target: bacteriophage 80α portal protein (gp42) in situ in SaPI1 virions (Staphylococcus aureus bacteriophage 80α); assay: cryo-EM structure; focused reconstruction with C12 symmetry of the portal complex in situ in purified full and empty SaPI1 virions (assembled in S. aureus), after signal subtraction of the capsid; 3.2 Å (full) and 3.5 Å (empty)
[3] = molecular target: the molecule itself; assay: cryo-EM structure; icosahedral reconstruction of full and empty capsids of purified SaPI1 virions (assembled in S. aureus); 3.1 Å (full, used to model CP) and 3.2 Å (empty)

Molecule: bacteriophage 80α portal protein (gp42), expressed in E. coli with a C-terminal hexahistidine tag (natural protein)
- stoichiometry N [1]: 13

Molecule: bacteriophage 80α portal protein (gp42) in situ in SaPI1 virions (natural protein)
- stoichiometry N [2]: 12

B1: bacteriophage 80α capsid protein (gp47) in mature SaPI1 capsids (natural protein, Staphylococcus aureus bacteriophage 80α, UniProt A4ZFB3 15-324, looked up)
chain: ASNNVKPQVFNPDNVMMHEKKDGTLMNEFTTPILQEVMENSKIMQLGKYEPMEGTEKKFTFWADKPGAYWVGEGQKIETSKATWVNATMRAFKLGVILPVTKEFLNYTYSQFFEEMKPMIAEAFYKKFDEAGILNQGNNPFGKSIAQSIEKTNKVIKGDFTQDNIIDLEALLEDDELEANAFISKTQNRSLLRKIVDPETKERIYDRNSDSLDGLPVVNLKSSNLKRGELITGDFDKLIYGIPQLIEYKIDETAQLSTVKNEDGTPVNLFEQDMVALRATMHVALHIADDKAFAKLVPADKRTDSVPGEV
notes: capsid protein gp47 of Staphylococcus aureus bacteriophage 80α, cut product: the first 14 residues are removed by the Prp protease; domains printed as N-arm 15-67, E-loop 68-104, P-domain 105-167 and 248-307, A-domain 168-247 and 308-324; residues 16-313 modelled; 240 copies in the icosahedral T=4 capsid; in the real virion five subunits at one vertex are replaced by the portal; also called CP; …
- stoichiometry N [3]: 240
